{"source": "paper PMC6937582", "about": "“Human leukocyte antigen (HLA) class II peptide flanking residues tune the immunogenicity of a human tumor-derived epitope” (The Journal of Biological Chemistry, 2019)", "key": {"[1]": {"molecular_target": "HLA-DR1 (HLA-DRα*0101 and HLA-DRβ1*0101) (human)", "assay": "ELISA; competitive peptide-binding assay: test peptide 10^-4-10^-10 M against 4.5 nM biotinylated CLIP 99-117 marker peptide for 0.1 μg refolded HLA-DR1-CLIP 105-117; 20 mM MES, 140 mM NaCl, 0.02% NaN3, pH 5, overnight at 37 °C; HLA-DR1 captured on anti-DR L243, bound marker detected with streptavidin-HRP; % competitive inhibition, four-parameter fit"}, "[2]": {"molecular_target": "HLA-DR1 (HLA-DRα*0101 and HLA-DRβ1*0101)", "assay": "in vitro competition assay (HLA-DR1 peptide binding)"}, "[3]": {"molecular_target": "HLA-DR1 (HLA-DRα*0101 and HLA-DRβ1*0101) (human)", "assay": "ELISA"}}, "data": [{"substance": "5T4_(11–30) peptide (from UniProt Q13641 11-30)", "values": [{"measurement": "IC50", "setting": "[1]", "result": 535, "unit": "nM"}]}, {"substance": "5T4_(111–130) 20-mer peptide E3A", "values": [{"measurement": "IC50", "setting": "[2]", "result": 149, "unit": "nM"}]}, {"substance": "IAV hemagglutinin_(306–319) epitope (peptide)", "values": [{"measurement": "IC50", "setting": "[3]", "result": 13, "unit": "nM"}]}]}
